T1: recombinant human CXCL1 protein (human, UniProt P09341 35-107)
T1 construct: also called human chemokine CXCL1; soluble recombinant human CXCL1
T1 sequence: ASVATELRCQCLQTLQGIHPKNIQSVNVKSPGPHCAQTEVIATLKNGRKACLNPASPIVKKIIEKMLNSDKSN

T2: mouse CXCL1 (mouse, UniProt P12850 25-96, limits assumed)
T2 sequence (looked up): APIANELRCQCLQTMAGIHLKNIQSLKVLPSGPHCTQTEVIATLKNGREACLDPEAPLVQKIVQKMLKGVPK

T3: rat CXCL1 (rat, UniProt P14095 25-96, limits assumed)
T3 sequence (looked up): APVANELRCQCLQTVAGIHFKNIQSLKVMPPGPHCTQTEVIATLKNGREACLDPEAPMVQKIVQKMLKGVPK

B1: anti-CXCL1 neutralizing monoclonal mouse antibody (HL2401) (antibody, V domains shown)
VH: EVKLVESGAELVKPGASVKLSCKASGYTFTSYYIYWVKQRPGQGLEWIGEIDPSHGGPTFNEKFKNKATLTVDKSSSTAYMQLSSLTSDDSAVYYCTRESGTGAMDYWGQGTTLTVSS
VL: DIVLTQSPASLAVSLGQRATISCKASQSVDYDGDSYVNWYQQKPGQPPKLLIYAASNLESRIPARFSGSGSGTDFTLNILPVEEDDGATYYCQQSSEDPWTFGGGTKLEIKR
notes: also called CXCL1 mAb (HL2401); mouse anti-human CXCL1 antibody HL2401
B2: Hum2401 IgG antibody (antibody, V domains shown)
VH: QVQLVESGGGLVQPGGSLRLSCKASGYTFTSYYIYWVRQAPGKGLEWIGEIDPSHGGPTFNEKFKNRFTISRDNSKNTLYLQMNSLRAEDTAVYYCTRESGTGAMDYWGQGTLVTVSS
VL: DIQMTQSPSSLSASVGDRATISCKASQSVDYDGDSYVNWYQQKPGKAPKLLIYAASNLESGIPSRFSGSGSGTDFTLTISSLQPEDFATYYCQQSSEDPWTFGQGTKVEIKR
notes: also called Hum2401 Ab; Pcmvdhfr-Hum2401(H+L)

How the values were obtained:
[1] = target: T1, recombinant human CXCL1 protein; test: apparent affinity-binding constant, in PBS; method not stated; in PBS
[2] = target: T1, recombinant human CXCL1 protein; test: apparent KD from the absorbance (450 nm) curve in human serum diluted 1:4
[3] = target: T1, recombinant human CXCL1 protein; test: apparent affinity-binding constant, in serum 1:40 dilution; method not stated; serum, 1:40 dilution
mouse CXCL1 = target: T2, mouse CXCL1; test: immunoblot strip (the text does not name the assay); 10, 20 and 30 ng of CXCL1 of each species loaded
rat CXCL1 = target: T3, rat CXCL1; test: as above
[4] = target: T1, recombinant human CXCL1 protein; test: ELISA, human CXCL1 coated 30 ng per well, IgG 1/10 dilute original, donkey anti-human HRP, TMB
Method: The human CXCL1 protein was coated onto 96-well, 30 ng for well at 4° C. overnight. The plate was blocked by 3% skim milk in PBS 2 h at room temperature. The plate was washed 3 times with PBST and applied anti-human CXCL1 humanized version IgG antibodies were diluted 1/100 and 1/10 in PBS and subjected into antigen coated plate for 1 h at room temperature. The donkey anti-human monoclonal antibody with HRP conjugate antibody was diluted 1/3000 and applied for 45 min at room temperature, afterwards washed 3 times with PBST and developed with TMB solution.

Binder | Kd [1] | Kd [2] | Kd [3] | binding result (mouse CXCL1) | binding result (rat CXCL1) | ELISA signals [4]
B1 | 0.176 µg/mL | 0.387 µg/mL | 0.252 µg/mL | no binding (tested: 30 ng) | no binding (tested: 30 ng) | 
B2 |  |  |  |  |  | 2.1
